Results from US20050260219A1, “Carboxypeptidases B from anopheles gambiae. compositions comprising them, vaccine applications and use as therapeutical targets” (INSTITUT PASTEUR, priority 2004, published 2005).
“And” between values parts separate entries of the source, which are not always exact repeats. Identical values can stand only once. Marks after values point to notes of the source that are not given here.

Assays:
[1] = substrate: N=C(N)NCCC[C@H](NC(=O)CNC(=O)c1ccccc1)C(=O)O; experiment: Carboxypeptidase activity assay on recombinant CPBAg1 with di-peptide substrates; assay type: biochemical, Anopheles gambiae; details: other: hydrolysis of Hip-Arg, Michaelis-Menten, 0.02-10 mM substrate; pH 7.2; 25.0 °C
Description: Carboxypeptidase activity was determined using the synthetic di-peptide substrates Hippuryl-Arginine (Hip-Arg), Hippuryl-Lysine (Hip-Lys) as carboxypeptidase B substrates and Hippuryl-Phenylalanine (Hip-Phe) as carboxypeptidase A substrate. All reagents were purchased from Sigma. Activities were assayed in 20 μl E buffer (100 mM NaCl/50 mM Hepes/100 μM ZnCl2 pH 7.2) containing 1 mM Hip-Arg, Hip-Lys or Hip-Phe. The reaction was initiated by adding an equal volume of His-tagged CPBAg1 (5 ng/μl in E buffer), incubated at 25° C. for 10-40 min, and stopped by the addition of 20 μl Ninhydrin reagent (Sigma, Lyon, France). The rate of the reaction was measured by estimating the amount of released amino acids using the ninhydrin procedure (60). One unit of enzyme activity was defined as μmol of amino acids released/min.
Estimation of Km and kcat was carried out after assays over a 500-fold range of Hip-Arg concentration (0.02-10 mM). Each concentration was assayed in triplicate. The kinetic parameters were derived from iterative non-linear least square fits of the Michaelis-Menten equation using the experimental data (61). Confidence limits for the fitted values were determined by 100 Monte Carlo iterations using the experimental standard deviations on individual measurements. […]

CPBAg1 = CPBAg1 specific ELISA titers in sera from immunized mice; assay type: in vivo; details: Swiss mice
Description: Specific antibody titers against CPBAg1 were measured in duplicates for each mice by ELISA three weeks after the first (group 1) and the booster (group 2) immunization. The average reading at O.D. 490 nm of each group was plotted against the reciprocal sera dilution. End points were defined as the highest serial dilutions yielding an absorbance reading at 490 nm greater than 0.5. (Δ) and (□) show antibody titers from group 1 and 2 respectively in sera from immunized mice. (▴) and (▪) show antibody titers from group 1 and 2 respectively in sera from control mice.
Immunizations were performed with a recombinant CPBAg1 protein expressed in insect cells using the baculovirus expression system. Eleven 3- to 4-week-old female Swiss outbred mice (CERJ, Le Genest St-Isle, France) were injected subcutaneously with 20 μg of recombinant CPBAg1 in sterile PBS, emulsified with complete Freund's adjuvant (Sigma). […]
Microtiter plates (Immuno-plate Maxisorp, Nunc) were coated with 50 ng/well of CPBAg1 in PBS, overnight at 4° C., and saturated with 100 μl/well 0.5% gelatine (Sigma) in PBS for 1 h. […] After 10 min. incubation, the reaction was stopped with 50 μl 3N HCl and absorbance was measured at 490 nm using a microplate reader (Molecular Devices). Serum dilutions at an absorbance value of 0.5 were designated as the endpoint of ELISA titers.

[2] = test system: P. berghei PbGFPCON ANKA strain; experiment: Effect of CPBAg1 immunized mice sera on parasite development (GFP-expressing P. berghei); assay type: in vivo, Plasmodium berghei
Description: Intensity of infection (number of parasites per positive midgut) by P. berghei was scored by detection of GFP-expressing parasites in midguts of mosquitoes fed on control (black bars) and immunized mice (grey bars). Gametocytemia was determined just before feeding by Giemsa staining of thin smears and by GFP fluorescence detection. Mosquitoes were dissected at 3 h, 24 h, 48 h and 9 days after blood feeding to visualize zygotes (Zyg), ookinetes (Ook), young oocysts (Ooc 48 h) and mature oocysts (Ooc day 9), respectively. Geometric mean intensity for six immunized mice was plotted as % of that for six control mice set at 100%. The table indicates the geometric mean number of parasite per midgut at each parasite life stages.
To assess the effect of anti-CPBAg1 sera on parasite development, a new group of six mice was immunized as described above and six control mice were injected with PBS/adjuvant. […] On day 3 after P. berghei inoculation, gametocytemia were determined by Giemsa staining of thin blood smears and by GFP fluorescence detection. […] Intensity of infection was scored by counting the number of zygotes and ookinetes within the mosquito midgut content, and the number of oocysts on the midgut wall. GFP fluorescence was visualized using GFP filter settings with a Zeiss Axiovert 25 fluorescence microscope.

P. berghei = experiment: Transmission-blocking assays: An. gambiae fed on CPBAg1 immunized, P. berghei infected mice; assay type: in vivo, Plasmodium berghei; details: for Mean no. of oocysts (range): per positive midgut, day 9-11; for % of reduction R: infected mosquitoes fed on immunized versus control mice
Description: Immunizations were performed with a recombinant CPBAg1 protein expressed in insect cells using the baculovirus expression system. Eleven 3- to 4-week-old female Swiss outbred mice (CERJ, Le Genest St-Isle, France) were injected subcutaneously with 20 μg of recombinant CPBAg1 in sterile PBS, emulsified with complete Freund's adjuvant (Sigma). Eleven control mice were injected simultaneously with sterile PBS/adjuvant following the same protocol. On day 21 post-immunization, eight immunized mice and eight control mice (group 1) were challenged with P. berghei for transmission blocking assays (see below). The three other immunized mice were boosted with 10 μg of recombinant CPBAg1 formulated in incomplete Freund's adjuvant (Sigma) and the three other control mice were injected simultaneously with sterile PBS/incomplete adjuvant. These six mice, which constituted group 2, were challenged with P. berghei 21 days after the booster immunization. Sera from immunized and control mice of both groups were prepared from 100 μl blood samples collected the same day as mosquito feeding (24 days after the first and booster immunizations).
On day 21 after the first and booster immunizations, mice were peritoneally inoculated with the P. berghei ANKA strain 2.34. On day 3 after P. berghei inoculation, parasitemia and gametocytemia were determined using Giemsa stained thin blood smears, and the mice were used for mosquito feeding. In group 1, parasitemia and gametocytemia ranged from 3.2% to 6.2% and from 6,500 to 11,500 gametocytes/μl for control mice, whereas they ranged from 3% to 7.4% and from 7,500 to 13,500 gametocytes/μl for immunized mice. In group 2, they ranged from 2% to 2.9% and from 2,000 to 4,000 gametocytes/μl for control mice, whereas they ranged from 1.5% to 3.6% and from 1,000 to 2,000 gametocytes/μl for immunized mice. Each mouse was placed onto a netted cage containing 50 starved 5-day-old An. gambiae females and feeding was carried out for 15 minutes at 21° C. After mosquito feeding, mice were bled to collect sera for ELISAs experiments and fully engorged mosquito females were maintained at 21° C., 80% humidity, until dissections. Rate of infection (number of infected mosquitoes/number of dissected mosquitoes) and intensity of infection (mean number of oocysts per positive midgut) were scored on day 9-11 after blood feeding by detection of oocysts on the mosquito midgut wall.
For the data reported in Table 7 below, An. gambiae were fed on control or immunized mice from group 1 (after primary immunization) and group 2 (after booster immunization). Proportion of infected mosquitoes (rate of infection) and mean number of oocysts per positive midgut (intensity of infection) were determined on day 9-11 post feeding. R: % reduction was calculated as R %=100×[1−(% infected mosquitoes fed on immunized mice/% infected mosquitoes fed on control mice)], using the mean value from each experimental group.

Molecule	Km [1] [µM]	endpoint titer of specific anti-CPBAg1 antibodies (CPBAg1; group 1: single injection of 20 μg in complete Freund's adjuvant, 24 days after immunization)	endpoint titer of specific anti-CPBAg1 antibodies (CPBAg1; group 2: second injection on day 21)	reduction of mean infection intensity versus mosquitoes fed on control mice ([2]; 3 h PBM (zygotes)) [%]	reduction of mean infection intensity versus mosquitoes fed on control mice ([2]; day 9 PBM (mature oocysts)) [%]	Rate of infection % (number of dissected mosquitoes) (P. berghei; Group 1 (primary immunization), individual immunized mice Im 1-Im 8, day 9-11 post feeding)	Mean no. of oocysts (range) (P. berghei; Group 1, individual immunized mice Im 1-Im 8)	% of reduction R (P. berghei; Group 1)	Rate of infection % (number of dissected mosquitoes) (P. berghei; Group 2 (booster immunization), individual immunized mice Im 9-Im 11, day 9-11 post feeding)	Mean no. of oocysts (range) (P. berghei; Group 2, individual immunized mice Im 9-Im 11)	% of reduction R (P. berghei; Group 2)	Mean no. of oocysts (P. berghei; Mean Group 1, immunized mice)	Rate of infection % (number of dissected mosquitoes) (P. berghei; Mean Group 1, immunized mice)	Mean no. of oocysts (P. berghei; Mean Group 2, immunized mice)	Rate of infection % (number of dissected mosquitoes) (P. berghei; Mean Group 2, immunized mice)
recombinant CPBAg1 (Anopheles gambiae) (protein) GSYHEFELYNVRPETAEQLSVLLKWRNGQEIEVDFWDAPKVGRSARLMVTREDHKRVEEFLEQHDIEYDLVAEDVQELLNREQRRNVEHGRRLRRDSNSRATVNFEHFWTLDEIYEYLDELAVAYNGLVRVSEIGRTHEDRPIKAITISTRGAVDQTRPIVFMDGGIHAREWAGVMSVMYMIHEFVEHSDQYAEQLSNTDYVIVPVANPDGYVYTHEQNRLWRKNRSPGNVLCYGVDLNRNFPFQWDRTTSECTNNFAGHAASSENETKALIGLMDQYKAAIRMYLAVHTYGEMILWPWGYDFLHAPNEDDLQRLGERARDALVAAGGPEYEVGNSADILYTASGATDDYAYSLGVPYSYTLELTGGGSQGFDLPAAELARVTSQTFELLKVFGQHAGTLSVTS	2590														
CPBAg1: recombinant His-tagged An. gambiae carboxypeptidase B (SEQ ID NO: 2) from baculovirus/insect cells, used to immunize mice (protein, listed as Anopheles gambiae, His tag) MKRLTFVTGCLLALAFAKAGSYHEFELYNVRPETAEQLSVLLKWRNGQEIEVDFWDAPKVGRSARLMVTREDHKRVEEFLEQHDIEYDLVAEDVQELLNREQRRNVEHGRRLRRDSNSRATVNFEHFWTLDEIYEYLDELAVAYNGLVRVSEIGRTHEDRPIKAITISTRGAVDQTRPIVFMDGGIHAREWAGVMSVMYMIHEFVEHSDQYAEQLSNTDYVIVPVANPDGYVYTHEQNRLWRKNRSPGNVLCYGVDLNRNFPFQWDRTTSECTNNFAGHAASSENETKALIGLMDQYKAAIRMYLAVHTYGEMILWPWGYDFLHAPNEDDLQRLGERARDALVAAGGPEYEVGNSADILYTASGATDDYAYSLGVPYSYTLELTGGGSQGFDLPAAELARVTSQTFELLKVFGQHAGTLSVTS		~12,150	~36,450	40	65	9.4 (32)* % and 0 (20)* % and 43.3 (30)* % and 31.2 (32)* % and 41.2 (17)* % and 38.8 (18)* % and 50 (30)* % and 10.5 (38)* %	2.5 (1-5)* and 0* and 7.16 (1-56) and 3.7 (1-70) and 5.4 (1-27) and 5.8 (1-32) and 6.7 (1-117) and 3.3 (1-15)	63% and 63.2%	77.4 (31)* % and 26.6 (30)* % and 36.6 (30)* %	23.7 (1-120) and 6.2 (3-10)* and 24.3 (6-100)	51% and 50.6%	5.3	28.1 (217)* %	18.6*	47.2 (91)* %
